The numbers were not newly measured in PMC11612555, “Impact of camel milk lactoferrin peptides against breast cancer cells: in silico and in vitro study” (Frontiers in Pharmacology, 2024), which cites them from elsewhere.

One data set deals with HeLa cells. Also noted: method as in Rascón-Cruz et al., 2021b. The settings on record: against HeLa; ref Rascón-Cruz et al., 2021b.
Another data set deals with MDAmb231 cells. On the set-up: method as in Rascón-Cruz et al., 2021b. The settings on record: against MDAmb231; ref Rascón-Cruz et al., 2021b.
In a further data set the test system is Hs578T. Also noted: method as in Zhang et al., 2014. The settings on record: ref Zhang et al., 2014.
The next data set relates to T-47D. Also noted: method as in Zhang et al., 2014. The note with it: ref Zhang et al., 2014.
The subject of the next data set is MDA-MB-231. On the set-up: method as in Zhang et al., 2014. The note with it: ref Zhang et al., 2014.
A further data set has as its system MCF-10-2A. On the set-up: method as in Zhang et al., 2014. The note with it: normal breast cell line MCF-10-2A; ref Zhang et al., 2014.
In a further data set the test system is MCF-7. Also noted: method as in Zhang et al., 2014. The note with it: ref Zhang et al., 2014.

B1: lactoferrin (protein, UniProt P02788 20-710, looked up)
Lactotransferrin: GRRRSVQWCAVSQPEATKCFQWQRNMRKVRGPPVSCIKRDSPIQCIQAIAENRADAVTLDGGFIYEAGLAPYKLRPVAAEVYGTERQPRTHYYAVAVVKKGGSFQLNELQGLKSCHTGLRRTAGWNVPIGTLRPFLNWTGPPEPIEAAVARFFSASCVPGADKGQFPNLCRLCAGTGENKCAFSSQEPYFSYSGAFKCLRDGAGDVAFIRESTVFEDLSDEAERDEYELLCPDNTRKPVDKFKDCHLARVPSHAVVARSVNGKEDAIWNLLRQAQEKFGKDKSPKFQLFGSPSGQKDLLFKDSAIGFSRVPPRIDSGLYLGSGYFTAIQNLRKSEEEVAARRARVVWCAVGEQELRKCNQWSGLSEGSVTCSSASTTEDCIALVLKGEADAMSLDGGYVYTAGKCGLVPVLAENYKSQQSSDPDPNCVDRPVEGYLAVAVVRRSDTSLTWNSVKGKKSCHTAVDRTAGWNIPMGLLFNQTGSCKFDEYFSQSCAPGSDPRSNLCALCIGDEQGENKCVPNSNERYYGYTGAFRCLAENAGDVAFVKDVTVLQNTDGNNNEAWAKDLKLADFALLCLDGKRKPVTEARSCHLAMAPNHAVVSRMDKVERLKQVLLHQQAKFGRNGSDCPDKFCLFQSETKNLLFNDNTECLARLHGKTTYEKYLGPQYVAGITNLKKCSTSPLLEACEFLRK
Regarding B1, the selective index is listed as 9.59 in the data set on HeLa cells and 11.68 in the data set on MDAmb231 cells.

B2: bovine lactoferrin (protein, UniProt P24627 20-708, looked up)
Lactotransferrin: APRKNVRWCTISQPEWFKCRRWQWRMKKLGAPSITCVRRAFALECIRAIAEKKADAVTLDGGMVFEAGRDPYKLRPVAAEIYGTKESPQTHYYAVAVVKKGSNFQLDQLQGRKSCHTGLGRSAGWIIPMGILRPYLSWTESLEPLQGAVAKFFSASCVPCIDRQAYPNLCQLCKGEGENQCACSSREPYFGYSGAFKCLQDGAGDVAFVKETTVFENLPEKADRDQYELLCLNNSRAPVDAFKECHLAQVPSHAVVARSVDGKEDLIWKLLSKAQEKFGKNKSRSFQLFGSPPGQRDLLFKDSALGFLRIPSKVDSALYLGSRYLTTLKNLRETAEEVKARYTRVVWCAVGPEEQKKCQQWSQQSGQNVTCATASTTDDCIVLVLKGEADALNLDGGYIYTAGKCGLVPVLAENRKSSKHSSLDCVLRPTEGYLAVAVVKKANEGLTWNSLKDKKSCHTAVDRTAGWNIPMGLIVNQTGSCAFDEFFSQSCAPGADPKSRLCALCAGDDQGLDKCVPNSKEKYYGYTGAFRCLAEDVGDVAFVKNDTVWENTNGESTADWAKNLNREDFRLLCLDGTRKPVTEAQSCHLAVAPNHAVVSRSDRAAHVKQVLLHQQALFGKNGKNCPDKFCLFKSETKNLLFNDNTECLAKLGGRPTYEEYLGTEYVTAIANLKKCSTSPLLEACAFLTR
notes: lactoferrin from bovine milk
B2: the proliferation result is reported as “inhibited” with Hs578T; “inhibited” with T-47D; “inhibited” in the data set with MDA-MB-231; “not” in the data set with MCF-10-2A; “inhibited” in the data set with MCF-7.
